Assay results as given in paper PMC11192315 (PLOS Pathogens, 2024).

B1: IY-2A (Class 4 human mAb) (antibody, V domains shown)
VH: QVQLVEWGAGLLKPSETLSLTCAVYGGSFSGYYWSWIRQPPGKGLEWIGLINHSGSTNYNPSLKSRVTISLDTSKNQFSLKLTSVTAADTAVYYCARGLGIFGVVTLSDVWGQGTTVTVSS
VL: NFMLTQPHSVSESPGKTVTISCTGSSGSIASNYVQWYQQRPGSAPTTVIYEDNQRPSGVPDRFSGSIDSSSNSASLTISGLRTEDEADYYCQSYDSGIWVFGGGTKLTVL
B2: FD-11A (Class 3 human mAb) (antibody, V domains shown)
VH: EVQLVESGGGVVQPGRSLRLSCAASGFTFSSYGMHWVRQAPGKGLEWVAVIWYDGSNKYYADSVKGRFTISRDNSKNTLYLQMNSLRAEDTAVYYCAKGPDILTGYYNYYYYGMDVWGQGTMVTVSS
VL: QSVLTQPPSVSGAPGQRVTISCTGSSSNIGAGYDVHWYQQLPGTAPKLLIYGNSNRPSGVPDRFSGSKSGTSASLAITGLQAEDEADYYCQSYDSSLSGFYVVFGGGTKLTVL
B3: C121 (Class 2 human mAb) (antibody, V domains shown)
VH: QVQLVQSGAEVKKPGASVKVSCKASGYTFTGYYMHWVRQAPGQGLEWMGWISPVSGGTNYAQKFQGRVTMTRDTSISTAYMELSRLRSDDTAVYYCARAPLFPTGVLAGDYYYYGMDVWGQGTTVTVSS
VL: QSALTQPASVSGSPGQSITISCTGTSSDVGSYNLVSWYQQHPGKAPKLMIYEGSKRPSGVSNRFSGSKSGNTASLTISGLQAEDEADYYCCSYAGSSTLVFGGGTKLTVL
B4: JL-8C (human IgG mAb) (antibody, V domains shown)
VH: QVQLVQSGAEVKKPGESLKISCKGSGYSFTSHWIGWVRQKPGKGLEWVGIIHPYDSDTRYSPSFQGLVTFSADKSSSTAYLQWSSLQASDTAIYYCARRTDQYGSHGMDVWGQGTTVTVSS
VL: QSVLTQPPSASGTPGQRVTISCSGGSSNIGGNPVNWYQQLPATAPKLLIYNNNQRPSGVSDRFSGSKSGTSASLAISGLQSVDEADYFCAAWDDSLNGVLFGGGTKLTVL
B5: JM-1A (human IgG mAb) (antibody, V domains shown)
VH: QVQLQQSGPGLVKPSGTLSLTCAVSGASISSGDWWSWVRQSPGRGLEWIGGIFHSGTTNYSPSLKSRVTMSVDQPKNQFSLHLTSVTAADTAVYYCARMRGIFDYWGQGTLVTVSS
VL: DIQLTQSPSSLSVSVGDRVTITCRASQAISNSLAWYQQKPGKAPKLLLYAASTLESGVPSRFSGSGSGTDFTLTISSLQPEDFATYYCQHYYSTPFFGGGTKVEIK
B6: JE-5C (human IgG mAb) (antibody, V domains shown)
VH: EVQLLESGGGLVQPGGSLRLSCAASGVTVTSNYMSWVRQAPGKGLEWVSVIYSGGSTYYADSVKGRFTISRHNSKNTLYLQMNSLRAEDTAVYYCARDLREAGGMDVWGQGTTVTVSS
VL: DIVMTQSPSSLSASVGDRVTITCQASQDINNYLNWYQQKPGKAPKLLIYDASNLETGVPSRFSGSGSGTDFTFTISSLQPEDIATYYCQQFDNLPWTFGQGTKVEIR
B7: FI-3A (Class 1 human mAb) (antibody, V domains shown)
VH: EVQLLESGGGLIQPGGSLRLSCAASGFTVSSNYMSWVRQAPGKGLEWVSVIYSGGSTYYADSVKGRFTISRDNSKNTLYLQMNSLRAEDTAVYYCARDHVRPGMNIWGQGTMVTVSS
VL: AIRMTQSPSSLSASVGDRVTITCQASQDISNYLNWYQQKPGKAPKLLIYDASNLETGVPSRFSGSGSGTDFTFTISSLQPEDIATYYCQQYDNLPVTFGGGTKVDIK
B8: JM-1A Fab (Fab, V domains shown)
VH: QVQLQQSGPGLVKPSGTLSLTCAVSGASISSGDWWSWVRQSPGRGLEWIGGIFHSGTTNYSPSLKSRVTMSVDQPKNQFSLHLTSVTAADTAVYYCARMRGIFDYWGQGTLVTVSS
VL: DIQLTQSPSSLSVSVGDRVTITCRASQAISNSLAWYQQKPGKAPKLLLYAASTLESGVPSRFSGSGSGTDFTLTISSLQPEDFATYYCQHYYSTPFFGGGTKVEIK
B9: JE-5C Fab (Fab, V domains shown)
VH: EVQLLESGGGLVQPGGSLRLSCAASGVTVTSNYMSWVRQAPGKGLEWVSVIYSGGSTYYADSVKGRFTISRHNSKNTLYLQMNSLRAEDTAVYYCARDLREAGGMDVWGQGTTVTVSS
VL: DIVMTQSPSSLSASVGDRVTITCQASQDINNYLNWYQQKPGKAPKLLIYDASNLETGVPSRFSGSGSGTDFTFTISSLQPEDIATYYCQQFDNLPWTFGQGTKVEIR
B10: JH-8B (human IgG mAb) (antibody, V domains shown)
VH: EVQLVESGGGLIQPGGSLRLSCAASGVTVSSNYMSWVRQAPGKGLEWISLIYSGGSTYYADSVKGRFTISRDNSKNTLYLQMNSLRAEDTAVYYCARELDIVGATDIWGQGTMVTVSS
VL: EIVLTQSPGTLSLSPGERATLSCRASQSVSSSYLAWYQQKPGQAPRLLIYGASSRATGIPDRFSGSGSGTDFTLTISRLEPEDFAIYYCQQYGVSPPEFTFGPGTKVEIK

Target: T1, SARS-CoV-2 RBD, wild type (Wuhan-Hu-1) (SARS-CoV-2, UniProt P0DTC2)
Assay: ELISA
Conditions: both partners purified

Binder | binding result
B1 | binds
B2 | binds
B3 | binds
B4 | binds
B5 | binds
B6 | binds
B7 | binds

Target: RBD domain (333-530) of SARS-CoV-2 WT Spike (SARS-CoV-2, UniProt P0DTC2)
Assay: crystal structure
Conditions: both partners purified

Binder | binding result
B8 | binds
B9 | binds

Target: T1, SARS-CoV-2 RBD, wild type (Wuhan-Hu-1)
Assay: cell-based or functional assay
Conditions: not given

Binder | IC50, neutralisation of pseudotyped lentivirus with WT spike [ng/mL]
B10 | 9
